Data from paper PMC10742460, “Lambda CI Binding to Related Phage Operator Sequences Validates Alignment Algorithm and Highlights the Importance of Overlooked Bonds”.

molecular target: T1, lambda CI repressor (Bacteriophage lambda, UniProt P03034 1-237); experiment: EMSA; apparent Kd; text gives error 3.10; EMSA: 10 mM HEPES, 150 mM NaCl, pH 7.4; 50 nM DNA, 0.4-40 uM CI; 20 min at room temperature; 10% polyacrylamide gel, 1x TBE pH 8.3, SYBR Safe stain; details: protein: recombinant; tags: His-tag, TEV cleavage site with linker (pET 29b+); chain copies: 2; label: none (SYBR Safe stain)
T1 sequence (P03034 whole entry): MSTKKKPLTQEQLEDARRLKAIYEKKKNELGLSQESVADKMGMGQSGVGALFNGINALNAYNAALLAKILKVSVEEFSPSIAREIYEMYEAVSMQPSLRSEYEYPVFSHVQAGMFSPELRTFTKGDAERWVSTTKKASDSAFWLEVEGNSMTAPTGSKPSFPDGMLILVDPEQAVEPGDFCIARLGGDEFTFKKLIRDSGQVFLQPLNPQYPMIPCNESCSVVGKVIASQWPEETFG

| Binder | Kd |
| --- | --- |
| SOR3 (Stx2I OR3) (dsDNA) DNA 1: GGTTATTATGGGGGCGAATTCTTTGCGCTGCAAGTGC DNA 2: GCACTTGCAGCGCAAAGAATTCGCCCCCATAATAACC | 7.68 ± 3.09 µM |

molecular target: T1, lambda CI repressor; experiment: EMSA; apparent Kd; EMSA: 10 mM HEPES, 150 mM NaCl, pH 7.4; 50 nM DNA, 0.4-40 uM CI; 20 min at room temperature; 10% polyacrylamide gel, 1x TBE pH 8.3, SYBR Safe stain; details: protein: recombinant; tags: His-tag, TEV cleavage site with linker (pET 29b+); chain copies: 2; label: none (SYBR Safe stain)

| Binder | Kd |
| --- | --- |
| LOR1 (lambda OR1) (dsDNA) DNA 1: GGTTATTATGGTACCTCTGGCGGTGATATGCAAGTGC DNA 2: GCACTTGCATATCACCGCCAGAGGTACCATAATAACC | 0.35 ± 0.03 µM |
| LOR2 (lambda OR2) (dsDNA) DNA 1: GGTTATTATGGTAACACCGTGCGTGTTGTGCAAGTGC DNA 2: GCACTTGCACAACACGCACGGTGTTACCATAATAACC | 1.55 ± 0.29 µM |
| VOL2 (VT2-SA OL2) (dsDNA) DNA 1: GGTTATTATGGCAATACAATTTGTTCTATGCAAGTGC DNA 2: GCACTTGCATAGAACAAATTGTATTGCCATAATAACC | 4.02 ± 0.16 µM |
| VOL3 (VT2-SA OL3) (dsDNA) DNA 1: GGTTATTATGGTACAACGCTTTGTATTTTGCAAGTGC DNA 2: GCACTTGCAAAATACAAAGCGTTGTACCATAATAACC | 3.67 ± 0.1 µM |
| SOR1 (Stx2I OR1) (dsDNA) DNA 1: GGTTATTATGGTTTCAGTTCAACCATAATGCAAGTGC DNA 2: GCACTTGCATTATGGTTGAACTGAAACCATAATAACC | 7.27 ± 2.39 µM |
| SOR2 (Stx2I OR2) (dsDNA) DNA 1: GGTTATTATGGATGAGTACGATACTAAATGCAAGTGC DNA 2: GCACTTGCATTTAGTATCGTACTCATCCATAATAACC | 7.67 ± 2.62 µM |
| SOL1 (Stx2I OL1) (dsDNA) DNA 1: GGTTATTATGGCAATGATGATTTCATGCTGCAAGTGC DNA 2: GCACTTGCAGCATGAAATCATCATTGCCATAATAACC | 7.11 ± 1.27 µM |
| SOL2 (Stx2I OL2) (dsDNA) DNA 1: GGTTATTATGGTGTAATATTTTCTTACATGCAAGTGC DNA 2: GCACTTGCATGTAAGAAAATATTACACCATAATAACC | 3.68 ± 0.47 µM |
| SOL3 (Stx2I OL3) (dsDNA) DNA 1: GGTTATTATGGGCTTCTTGAATAACAGCTGCAAGTGC DNA 2: GCACTTGCAGCTGTTATTCAAGAAGCCCATAATAACC | 4.26 ± 0.27 µM |
| LOR3 (lambda OR3) (dsDNA) DNA 1: GGTTATTATGGTATCACCGCAAGGGATATGCAAGTGC DNA 2: GCACTTGCATATCCCTTGCGGTGATACCATAATAACC | 3.07 ± 1.13 µM |
| LOL1 (lambda OL1) (dsDNA) DNA 1: GGTTATTATGGTATCACCGCCAGTGGTATGCAAGTGC DNA 2: GCACTTGCATACCACTGGCGGTGATACCATAATAACC | 0.21 ± 0.02 µM |
| LOL2 (lambda OL2) (dsDNA) DNA 1: GGTTATTATGGCAACACCGCCAGAGATATGCAAGTGC DNA 2: GCACTTGCATATCTCTGGCGGTGTTGCCATAATAACC | 1.5 ± 0.17 µM |
| LOL3 (lambda OL3) (dsDNA) DNA 1: GGTTATTATGGTATCACCGCAGATGGTTTGCAAGTGC DNA 2: GCACTTGCAAACCATCTGCGGTGATACCATAATAACC | 1.21 ± 0.08 µM |
| VOR1 (VT2-SA OR1) (dsDNA) DNA 1: GGTTATTATGGAAGTACATATTGTATTTTGCAAGTGC DNA 2: GCACTTGCAAAATACAATATGTACTTCCATAATAACC | 5.15 ± 2.39 µM |
| VOR2 (VT2-SA OR2) (dsDNA) DNA 1: GGTTATTATGGATGCACAATGTGTATTTTGCAAGTGC DNA 2: GCACTTGCAAAATACACATTGTGCATCCATAATAACC | 6.39 ± 2.75 µM |
| VOR3 (VT2-SA OR3) (dsDNA) DNA 1: GGTTATTATGGTATTACGCTCTGTACTGTGCAAGTGC DNA 2: GCACTTGCACAGTACAGAGCGTAATACCATAATAACC | 4.41 ± 0.99 µM |
| VOL1 (VT2-SA OL1) (dsDNA) DNA 1: GGTTATTATGGTAGTACGATATGTACTTTGCAAGTGC DNA 2: GCACTTGCAAAGTACATATCGTACTACCATAATAACC | 5.37 ± 1.16 µM |
